{"source": "paper PMC11259171", "about": "“Huntingtin is an RNA binding protein and participates in NEAT1-mediated paraspeckles”", "target": "mHTT-HAP40 Q54 (expanded mutant huntingtin with HAP40) (UniProt P42858;P23610 1-38+=QQQQQQQQQQQQQQQQQQQQQQQQQQQQQQQQQ+39-3142;1-371, internal_change)", "sequence (P42858 other isoform, or with tags, fused parts or gaps | mutant, chain 1 of 2)": "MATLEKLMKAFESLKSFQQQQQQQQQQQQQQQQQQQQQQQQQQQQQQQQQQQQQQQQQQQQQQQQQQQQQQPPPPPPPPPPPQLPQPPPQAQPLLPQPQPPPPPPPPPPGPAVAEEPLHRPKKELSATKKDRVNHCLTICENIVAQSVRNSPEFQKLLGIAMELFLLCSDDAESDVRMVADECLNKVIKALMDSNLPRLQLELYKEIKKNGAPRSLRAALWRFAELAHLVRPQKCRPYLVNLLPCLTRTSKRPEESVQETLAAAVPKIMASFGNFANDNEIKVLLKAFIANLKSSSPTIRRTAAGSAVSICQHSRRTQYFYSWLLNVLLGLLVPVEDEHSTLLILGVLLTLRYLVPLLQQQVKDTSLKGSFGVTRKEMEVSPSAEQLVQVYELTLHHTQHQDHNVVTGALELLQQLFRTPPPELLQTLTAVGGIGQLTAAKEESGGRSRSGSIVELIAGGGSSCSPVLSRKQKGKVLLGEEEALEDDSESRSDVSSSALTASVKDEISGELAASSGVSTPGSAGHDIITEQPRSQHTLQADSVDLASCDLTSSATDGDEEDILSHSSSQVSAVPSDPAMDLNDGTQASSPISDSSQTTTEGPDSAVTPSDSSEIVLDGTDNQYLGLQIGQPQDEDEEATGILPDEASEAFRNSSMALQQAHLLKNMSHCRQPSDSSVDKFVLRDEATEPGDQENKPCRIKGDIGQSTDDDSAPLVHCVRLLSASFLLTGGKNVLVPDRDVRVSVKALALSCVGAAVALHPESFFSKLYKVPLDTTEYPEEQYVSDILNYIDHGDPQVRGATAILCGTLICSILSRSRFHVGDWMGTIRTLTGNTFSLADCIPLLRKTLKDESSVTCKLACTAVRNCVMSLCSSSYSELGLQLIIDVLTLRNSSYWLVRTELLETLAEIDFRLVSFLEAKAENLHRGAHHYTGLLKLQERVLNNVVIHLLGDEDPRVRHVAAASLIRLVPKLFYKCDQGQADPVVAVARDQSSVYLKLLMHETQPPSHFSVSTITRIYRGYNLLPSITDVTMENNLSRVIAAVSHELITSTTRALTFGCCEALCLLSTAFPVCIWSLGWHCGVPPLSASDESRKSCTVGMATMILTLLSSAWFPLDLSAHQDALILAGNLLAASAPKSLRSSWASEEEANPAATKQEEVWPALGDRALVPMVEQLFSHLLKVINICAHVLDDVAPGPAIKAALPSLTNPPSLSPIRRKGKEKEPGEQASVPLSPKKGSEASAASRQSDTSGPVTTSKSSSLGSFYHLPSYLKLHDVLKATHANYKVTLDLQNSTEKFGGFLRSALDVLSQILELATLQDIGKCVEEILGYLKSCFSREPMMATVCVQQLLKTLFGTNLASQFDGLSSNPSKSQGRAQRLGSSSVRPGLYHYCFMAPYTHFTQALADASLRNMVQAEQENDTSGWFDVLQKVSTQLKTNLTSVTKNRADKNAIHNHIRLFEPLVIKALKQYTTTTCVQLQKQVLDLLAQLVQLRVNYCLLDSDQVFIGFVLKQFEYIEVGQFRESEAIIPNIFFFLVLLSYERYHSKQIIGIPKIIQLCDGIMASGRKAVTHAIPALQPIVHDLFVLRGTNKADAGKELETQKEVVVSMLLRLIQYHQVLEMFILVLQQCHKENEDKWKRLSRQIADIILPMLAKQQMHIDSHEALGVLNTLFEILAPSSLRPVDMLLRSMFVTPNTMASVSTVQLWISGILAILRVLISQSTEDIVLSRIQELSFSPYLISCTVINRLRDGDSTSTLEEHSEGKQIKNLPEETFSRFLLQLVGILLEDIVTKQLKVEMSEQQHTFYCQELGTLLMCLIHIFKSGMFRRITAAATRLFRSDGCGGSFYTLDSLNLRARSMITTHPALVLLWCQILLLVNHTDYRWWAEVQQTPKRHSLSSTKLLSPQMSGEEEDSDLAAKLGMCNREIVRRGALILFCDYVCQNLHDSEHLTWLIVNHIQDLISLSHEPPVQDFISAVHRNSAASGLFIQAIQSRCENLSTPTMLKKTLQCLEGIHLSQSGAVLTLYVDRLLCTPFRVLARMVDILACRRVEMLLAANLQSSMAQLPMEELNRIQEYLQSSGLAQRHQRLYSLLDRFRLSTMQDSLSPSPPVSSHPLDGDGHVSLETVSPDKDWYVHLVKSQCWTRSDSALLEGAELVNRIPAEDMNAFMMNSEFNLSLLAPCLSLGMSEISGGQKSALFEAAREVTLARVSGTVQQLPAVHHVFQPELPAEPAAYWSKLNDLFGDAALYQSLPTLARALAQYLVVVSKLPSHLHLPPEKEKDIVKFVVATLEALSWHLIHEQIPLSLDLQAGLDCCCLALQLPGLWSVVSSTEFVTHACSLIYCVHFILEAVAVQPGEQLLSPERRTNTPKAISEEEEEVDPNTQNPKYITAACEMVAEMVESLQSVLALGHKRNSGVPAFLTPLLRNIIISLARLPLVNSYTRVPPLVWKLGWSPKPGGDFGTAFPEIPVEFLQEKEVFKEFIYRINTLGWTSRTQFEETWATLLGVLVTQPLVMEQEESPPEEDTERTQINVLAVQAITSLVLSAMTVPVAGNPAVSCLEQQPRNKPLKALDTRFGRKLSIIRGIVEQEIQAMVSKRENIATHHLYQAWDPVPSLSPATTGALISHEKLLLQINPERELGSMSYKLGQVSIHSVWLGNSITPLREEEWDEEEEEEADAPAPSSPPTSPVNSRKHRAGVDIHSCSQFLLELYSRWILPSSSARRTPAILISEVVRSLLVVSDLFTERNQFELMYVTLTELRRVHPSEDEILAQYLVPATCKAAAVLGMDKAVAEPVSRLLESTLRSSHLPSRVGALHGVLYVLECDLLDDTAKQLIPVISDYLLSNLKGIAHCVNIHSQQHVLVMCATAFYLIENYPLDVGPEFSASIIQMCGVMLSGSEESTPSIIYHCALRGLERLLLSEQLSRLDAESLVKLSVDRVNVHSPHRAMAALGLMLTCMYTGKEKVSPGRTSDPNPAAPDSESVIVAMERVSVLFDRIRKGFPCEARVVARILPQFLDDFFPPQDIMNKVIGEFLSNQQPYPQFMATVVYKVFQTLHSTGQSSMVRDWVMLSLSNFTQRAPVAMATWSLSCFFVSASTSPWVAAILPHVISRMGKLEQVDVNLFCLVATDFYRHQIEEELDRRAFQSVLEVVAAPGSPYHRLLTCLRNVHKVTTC", "sequence (P23610 whole entry, change not shown, chain 2 of 2)": "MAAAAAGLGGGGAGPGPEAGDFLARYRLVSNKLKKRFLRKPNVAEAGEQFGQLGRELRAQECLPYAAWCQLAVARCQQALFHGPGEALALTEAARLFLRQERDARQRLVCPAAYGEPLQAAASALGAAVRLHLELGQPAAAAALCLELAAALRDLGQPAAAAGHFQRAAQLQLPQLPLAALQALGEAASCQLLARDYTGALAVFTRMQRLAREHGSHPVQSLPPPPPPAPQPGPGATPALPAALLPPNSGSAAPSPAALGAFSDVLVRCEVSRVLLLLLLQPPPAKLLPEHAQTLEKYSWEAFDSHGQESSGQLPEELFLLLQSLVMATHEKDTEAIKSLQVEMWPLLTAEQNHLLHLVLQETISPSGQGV", "experiment": "fluorescence polarization (method implied); 20 mM Hepes pH 7.4, 50 mM KCl, 2 mM MgCl2, 1 mM TCEP, 2.5% glycerol, 0.005% Tween 20; SPR 20 C, EMSA on ice, FP 10 min (temperature not stated)", "settings": "protein: recombinant; copies: 1;1; label: 5'-FAM (FP, EMSA); biotin (SPR)"}
{"binder": "100-mer random ssRNA (ssRNA) RNA: CACGUAUGAGAAGGUAUUUGCCCGAUAAUCAAUACCCCAGGCUUCUAACUUUUUCCACUCGCUUGAGCCGGCUAGGCCUUUCUGCCCGAAGUUUCGAUGG", "values": [{"measurement": "Kd", "value": "500 ± 300", "unit": "nM"}]}
